Test results taken from patent publication US20030175822A1.

Experiments:
[1] = biological target: mu3 opiate receptor (human) (UniProt P35372); assay: displacement of [3H]-dihydromorphine, membrane suspension of normal human lung
[2] = biological target: mu3 opiate receptor (human) (UniProt P35372); assay: displacement of [3H]-dihydromorphine, membrane suspension of human lung non-small cell carcinoma
[3] = biological target: mu3 opiate receptor (human) (UniProt P35372); assay: displacement of [3H]-dihydromorphine, membrane suspension of human granulocytes

mu3 opiate receptor (human), sequence (P35372 whole entry): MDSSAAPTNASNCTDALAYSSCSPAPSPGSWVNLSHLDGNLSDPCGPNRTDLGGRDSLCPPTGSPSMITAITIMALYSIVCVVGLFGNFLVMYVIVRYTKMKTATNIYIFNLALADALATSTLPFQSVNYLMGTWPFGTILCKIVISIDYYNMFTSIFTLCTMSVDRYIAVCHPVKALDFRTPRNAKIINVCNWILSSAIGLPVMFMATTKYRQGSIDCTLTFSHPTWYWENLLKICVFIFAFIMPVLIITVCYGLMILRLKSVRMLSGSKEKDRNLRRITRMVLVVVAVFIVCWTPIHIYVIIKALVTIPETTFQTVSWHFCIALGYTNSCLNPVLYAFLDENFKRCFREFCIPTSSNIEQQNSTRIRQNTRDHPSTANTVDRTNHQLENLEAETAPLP

| IC50 [1] [nM] | IC50 [2] [nM] | IC50 [3] [nM] | Substance |
| --- | --- | --- | --- |
| > 1000 | > 1000 | > 1000 | Dynorphin 1-17 (from UniProt P01213 207-223) (peptide) |
| > 1000 | > 1000 | > 1000 | (D-Pen^2, D-Pen^5)-enkephalin (peptide) |
| > 1000 | > 1000 | > 1000 | Deltorphin (peptide) |

| Substance | IC50 [1] [nM] | IC50 [2] [nM] | IC50 [3] [nM] |
| --- | --- | --- | --- |
| (D-Ala^2, Leu^5)-enkephalin (from UniProt P01210 230-234) (peptide) | > 1000 | > 1000 | > 1000 |
